Here are results for one molecule from patent US20030180295A1 (PHILADELPHIA HEALTH AND EDUCATION, published 2003).

The experiment addresses T1, Thrombospondin (TSP-1) (UniProt P07996 19-1170, biotinylated in the ligand blot of Example 5).
T1 construct: also called thrombospondin-1; biotinylated TSP-1
As to the kind of experiment: resonant mirror biosensor, peptide alone on immobilized TSP-1.

T1 sequence (P07996 19-1170 limits assumed): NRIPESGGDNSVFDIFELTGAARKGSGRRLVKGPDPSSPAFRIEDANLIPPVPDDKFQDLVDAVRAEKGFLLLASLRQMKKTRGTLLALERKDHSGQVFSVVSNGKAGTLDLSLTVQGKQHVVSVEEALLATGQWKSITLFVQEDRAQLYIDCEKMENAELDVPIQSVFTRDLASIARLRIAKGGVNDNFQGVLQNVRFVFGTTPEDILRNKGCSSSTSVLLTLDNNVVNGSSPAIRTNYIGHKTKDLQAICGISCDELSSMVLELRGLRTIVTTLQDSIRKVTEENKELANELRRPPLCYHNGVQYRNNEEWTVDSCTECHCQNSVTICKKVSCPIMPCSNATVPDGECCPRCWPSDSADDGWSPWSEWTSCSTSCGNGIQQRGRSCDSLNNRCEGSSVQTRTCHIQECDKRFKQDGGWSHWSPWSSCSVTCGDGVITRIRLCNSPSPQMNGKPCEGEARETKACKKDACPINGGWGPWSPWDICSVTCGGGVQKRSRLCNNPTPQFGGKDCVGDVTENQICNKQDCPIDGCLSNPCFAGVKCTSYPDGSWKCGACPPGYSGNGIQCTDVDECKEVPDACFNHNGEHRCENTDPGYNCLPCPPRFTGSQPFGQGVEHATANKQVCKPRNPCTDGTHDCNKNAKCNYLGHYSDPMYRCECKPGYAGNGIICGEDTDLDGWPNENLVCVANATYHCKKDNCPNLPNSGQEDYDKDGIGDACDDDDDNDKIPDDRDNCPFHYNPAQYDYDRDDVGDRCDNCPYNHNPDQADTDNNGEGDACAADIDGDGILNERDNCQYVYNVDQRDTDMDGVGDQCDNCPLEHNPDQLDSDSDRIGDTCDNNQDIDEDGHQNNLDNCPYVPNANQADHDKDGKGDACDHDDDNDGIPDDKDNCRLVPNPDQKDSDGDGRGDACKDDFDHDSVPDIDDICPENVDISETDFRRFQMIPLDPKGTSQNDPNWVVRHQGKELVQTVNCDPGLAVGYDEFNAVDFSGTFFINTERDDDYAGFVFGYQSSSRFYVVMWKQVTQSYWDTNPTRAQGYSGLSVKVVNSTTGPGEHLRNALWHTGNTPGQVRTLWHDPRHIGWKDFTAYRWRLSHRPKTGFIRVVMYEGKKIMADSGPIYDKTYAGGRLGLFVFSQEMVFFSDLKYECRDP

B1: Pro-His-Ser-Arg-Asn (SEQ ID NO: 10) (peptide)
peptide: PHSRN
notes: also called random negative control peptide; control peptide
As for B1, the binding result is “no binding”.
